Literature values, collected in patent publication US9522171B2 (priority 2010, dated 2016).

Key:
[1] = target: T1, C5 (Mus musculus, UniProt P06684); conditions: mouse serum; cited from earlier work
T1 construct: from tissue; host or cells: mouse serum

[2] = target: T2, C5 (Homo sapiens, UniProt P01031); conditions: human serum; cited from earlier work
T2 construct: from tissue; host or cells: human serum

[3] = target: T3, C5 (Rattus norvegicus, UniProt P08650); conditions: rat serum; cited from earlier work
T3 construct: from tissue; host or cells: rat serum
T3 sequence (P08650 19-1681): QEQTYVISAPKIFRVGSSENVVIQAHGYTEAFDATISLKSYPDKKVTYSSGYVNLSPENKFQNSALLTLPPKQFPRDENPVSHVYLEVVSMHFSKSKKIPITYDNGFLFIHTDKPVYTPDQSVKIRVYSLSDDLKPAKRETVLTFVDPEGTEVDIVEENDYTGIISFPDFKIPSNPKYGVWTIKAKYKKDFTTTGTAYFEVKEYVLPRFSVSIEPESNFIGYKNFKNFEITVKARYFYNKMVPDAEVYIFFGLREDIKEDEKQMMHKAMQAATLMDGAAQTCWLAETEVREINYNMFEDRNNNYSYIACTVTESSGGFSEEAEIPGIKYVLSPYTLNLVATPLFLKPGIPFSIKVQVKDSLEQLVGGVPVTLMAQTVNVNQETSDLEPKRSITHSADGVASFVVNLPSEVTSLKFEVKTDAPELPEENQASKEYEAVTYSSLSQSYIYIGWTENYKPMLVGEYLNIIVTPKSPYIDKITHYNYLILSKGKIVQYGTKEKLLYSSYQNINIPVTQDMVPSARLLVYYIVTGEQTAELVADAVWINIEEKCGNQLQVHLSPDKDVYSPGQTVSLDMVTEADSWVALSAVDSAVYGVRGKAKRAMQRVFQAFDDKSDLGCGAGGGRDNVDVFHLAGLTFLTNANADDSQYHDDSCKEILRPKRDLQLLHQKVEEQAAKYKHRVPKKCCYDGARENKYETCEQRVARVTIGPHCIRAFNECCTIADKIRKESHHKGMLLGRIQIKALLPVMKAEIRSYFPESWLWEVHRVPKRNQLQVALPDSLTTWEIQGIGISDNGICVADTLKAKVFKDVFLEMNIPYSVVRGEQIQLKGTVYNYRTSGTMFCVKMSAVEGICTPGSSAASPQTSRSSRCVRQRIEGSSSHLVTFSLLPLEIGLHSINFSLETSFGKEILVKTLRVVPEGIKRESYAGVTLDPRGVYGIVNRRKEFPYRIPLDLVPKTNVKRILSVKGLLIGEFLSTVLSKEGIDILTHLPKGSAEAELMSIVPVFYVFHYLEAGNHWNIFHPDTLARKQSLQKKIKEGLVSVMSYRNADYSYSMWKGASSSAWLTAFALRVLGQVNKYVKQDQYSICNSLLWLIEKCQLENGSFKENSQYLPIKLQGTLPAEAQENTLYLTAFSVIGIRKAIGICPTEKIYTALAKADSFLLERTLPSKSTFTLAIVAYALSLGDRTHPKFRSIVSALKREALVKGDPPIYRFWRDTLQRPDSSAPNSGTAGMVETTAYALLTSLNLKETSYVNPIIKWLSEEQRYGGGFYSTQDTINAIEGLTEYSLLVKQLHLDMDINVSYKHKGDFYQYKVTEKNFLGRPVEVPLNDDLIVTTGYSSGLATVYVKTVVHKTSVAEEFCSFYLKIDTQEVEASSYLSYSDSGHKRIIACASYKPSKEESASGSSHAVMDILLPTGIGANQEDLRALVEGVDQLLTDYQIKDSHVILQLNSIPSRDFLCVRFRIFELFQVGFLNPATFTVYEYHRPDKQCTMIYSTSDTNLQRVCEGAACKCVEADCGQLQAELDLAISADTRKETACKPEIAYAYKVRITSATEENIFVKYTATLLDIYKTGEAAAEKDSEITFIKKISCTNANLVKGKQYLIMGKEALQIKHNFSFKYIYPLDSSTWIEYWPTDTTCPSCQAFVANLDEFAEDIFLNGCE

[4] = system: alternative, classical and lectin complement pathways; conditions: cited from earlier work

T1 sequence (P06684 19-1680): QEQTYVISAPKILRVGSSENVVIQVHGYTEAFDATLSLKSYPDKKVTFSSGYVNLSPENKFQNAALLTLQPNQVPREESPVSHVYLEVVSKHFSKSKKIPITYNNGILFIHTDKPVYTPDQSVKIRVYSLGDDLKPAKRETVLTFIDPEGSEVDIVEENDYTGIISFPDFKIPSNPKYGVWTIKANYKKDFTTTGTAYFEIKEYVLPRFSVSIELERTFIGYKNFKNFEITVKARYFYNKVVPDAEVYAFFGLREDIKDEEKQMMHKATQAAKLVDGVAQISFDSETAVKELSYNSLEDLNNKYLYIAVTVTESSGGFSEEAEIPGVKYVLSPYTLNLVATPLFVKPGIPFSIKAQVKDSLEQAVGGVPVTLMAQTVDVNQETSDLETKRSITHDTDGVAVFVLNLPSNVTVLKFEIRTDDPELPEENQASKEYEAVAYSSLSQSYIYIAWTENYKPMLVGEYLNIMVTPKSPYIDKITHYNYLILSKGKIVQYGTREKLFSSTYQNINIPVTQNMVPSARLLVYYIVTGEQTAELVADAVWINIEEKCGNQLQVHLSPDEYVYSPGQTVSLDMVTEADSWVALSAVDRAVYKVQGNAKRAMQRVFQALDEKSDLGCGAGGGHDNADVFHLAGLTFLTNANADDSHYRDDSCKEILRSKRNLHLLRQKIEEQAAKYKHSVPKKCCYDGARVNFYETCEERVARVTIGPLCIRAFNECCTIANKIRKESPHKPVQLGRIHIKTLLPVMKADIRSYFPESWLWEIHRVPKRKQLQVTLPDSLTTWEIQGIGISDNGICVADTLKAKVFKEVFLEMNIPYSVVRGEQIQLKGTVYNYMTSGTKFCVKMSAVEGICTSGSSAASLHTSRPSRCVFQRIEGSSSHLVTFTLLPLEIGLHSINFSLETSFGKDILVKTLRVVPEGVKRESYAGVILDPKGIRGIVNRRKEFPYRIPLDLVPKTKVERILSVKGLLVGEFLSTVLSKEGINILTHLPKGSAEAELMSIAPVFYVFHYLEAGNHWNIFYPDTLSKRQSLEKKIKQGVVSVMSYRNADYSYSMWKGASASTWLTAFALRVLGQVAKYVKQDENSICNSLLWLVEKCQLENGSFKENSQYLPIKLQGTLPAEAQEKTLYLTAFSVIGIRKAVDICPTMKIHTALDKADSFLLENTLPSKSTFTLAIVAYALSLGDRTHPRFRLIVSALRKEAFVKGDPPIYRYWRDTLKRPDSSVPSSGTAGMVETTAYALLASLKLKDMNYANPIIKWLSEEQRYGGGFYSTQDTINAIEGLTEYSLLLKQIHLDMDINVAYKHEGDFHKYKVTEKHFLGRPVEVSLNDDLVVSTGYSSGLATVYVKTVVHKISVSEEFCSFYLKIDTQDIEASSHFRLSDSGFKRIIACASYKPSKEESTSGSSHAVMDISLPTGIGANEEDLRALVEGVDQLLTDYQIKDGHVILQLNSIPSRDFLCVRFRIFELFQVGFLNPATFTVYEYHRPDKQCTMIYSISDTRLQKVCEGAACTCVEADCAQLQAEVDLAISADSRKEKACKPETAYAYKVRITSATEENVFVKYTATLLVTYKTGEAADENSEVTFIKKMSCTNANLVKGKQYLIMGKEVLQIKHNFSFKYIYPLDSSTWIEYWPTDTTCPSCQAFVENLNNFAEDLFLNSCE
T2 sequence (P01031 19-1676): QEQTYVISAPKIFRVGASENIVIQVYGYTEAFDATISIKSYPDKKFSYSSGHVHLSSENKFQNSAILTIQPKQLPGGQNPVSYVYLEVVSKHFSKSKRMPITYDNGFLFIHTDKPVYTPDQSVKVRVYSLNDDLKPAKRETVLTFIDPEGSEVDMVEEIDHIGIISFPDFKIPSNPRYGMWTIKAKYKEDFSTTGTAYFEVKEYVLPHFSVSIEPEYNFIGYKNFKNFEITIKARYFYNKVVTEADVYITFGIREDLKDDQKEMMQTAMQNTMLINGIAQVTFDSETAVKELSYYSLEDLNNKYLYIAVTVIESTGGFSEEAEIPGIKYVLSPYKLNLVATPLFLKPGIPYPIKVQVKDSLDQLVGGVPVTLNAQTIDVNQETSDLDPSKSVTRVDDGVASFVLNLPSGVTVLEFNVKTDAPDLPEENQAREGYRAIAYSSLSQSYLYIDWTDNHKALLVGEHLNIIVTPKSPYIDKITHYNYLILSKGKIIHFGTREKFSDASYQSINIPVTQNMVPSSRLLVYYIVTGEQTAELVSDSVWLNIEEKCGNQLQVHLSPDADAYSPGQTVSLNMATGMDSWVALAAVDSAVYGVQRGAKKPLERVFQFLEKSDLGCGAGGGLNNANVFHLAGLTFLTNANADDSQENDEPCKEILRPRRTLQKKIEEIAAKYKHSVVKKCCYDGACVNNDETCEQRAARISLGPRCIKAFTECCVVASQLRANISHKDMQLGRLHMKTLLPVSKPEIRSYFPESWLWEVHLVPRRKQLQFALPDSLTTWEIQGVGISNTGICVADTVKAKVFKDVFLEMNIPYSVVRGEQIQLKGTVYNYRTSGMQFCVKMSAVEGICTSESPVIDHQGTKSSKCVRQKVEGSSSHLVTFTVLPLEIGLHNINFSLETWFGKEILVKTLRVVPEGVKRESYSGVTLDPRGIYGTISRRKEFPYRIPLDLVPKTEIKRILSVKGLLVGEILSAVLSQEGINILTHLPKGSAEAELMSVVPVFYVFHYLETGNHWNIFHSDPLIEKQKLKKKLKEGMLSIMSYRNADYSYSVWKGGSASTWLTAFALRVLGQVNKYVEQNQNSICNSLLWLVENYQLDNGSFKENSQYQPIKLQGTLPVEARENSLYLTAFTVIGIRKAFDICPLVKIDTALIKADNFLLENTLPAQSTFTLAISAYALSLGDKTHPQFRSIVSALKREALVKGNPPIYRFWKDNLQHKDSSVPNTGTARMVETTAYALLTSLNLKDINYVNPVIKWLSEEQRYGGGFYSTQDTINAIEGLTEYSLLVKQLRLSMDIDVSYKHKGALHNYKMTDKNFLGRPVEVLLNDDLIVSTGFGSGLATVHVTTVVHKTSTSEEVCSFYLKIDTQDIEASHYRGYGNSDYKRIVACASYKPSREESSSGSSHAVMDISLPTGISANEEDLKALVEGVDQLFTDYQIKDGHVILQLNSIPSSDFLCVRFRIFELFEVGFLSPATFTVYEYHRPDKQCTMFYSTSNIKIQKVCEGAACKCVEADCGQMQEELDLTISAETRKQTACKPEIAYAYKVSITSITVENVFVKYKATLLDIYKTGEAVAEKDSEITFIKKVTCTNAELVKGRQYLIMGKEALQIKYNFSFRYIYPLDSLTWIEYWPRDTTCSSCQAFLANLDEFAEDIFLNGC

## EV576: Lipocalin protein from salivary glands of the tick Ornithodoros moubata, sequence of FIG. 2; binds complement C5 and LTB4
[1]
  IC50 for binding C5 and preventing its cleavage by C5 convertase: approximately 0.02 mg/ml
[2]
  IC50 for binding C5 and preventing its cleavage by C5 convertase: approximately 0.02 mg/ml
[3]
  IC50 for binding C5 and preventing its cleavage by C5 convertase: approximately 0.02 mg/ml
[4]
  inhibition of the complement system: inhibits the alternative, classical and lectin complement pathways
